Residue numbers refer to the chain shown, from its start. Names may count otherwise. *1 amine or outer side, *2 acyl side, *3 side chain or, on linkers, in order; H or OH if unused. Where a SMILES comes first, the peptide text is derived from it. The star is where a group is joined. pNA = O=[N+]([O-])c1ccc(N*)cc1; Suc = O=C(CCC(=O)[*:2])[*:1]
What was measured:
[1] = biological target: T1, B. amyloliquefaciens subtilisin variant G152 (Ala152 to Gly) (Bacillus amyloliquefaciens, UniProt P00782, A259G); assay: Kinetics of p-nitroanilide substrate hydrolysis, G152; assay type: biochemical; details: Table XII, Gly (G) at position 152; synthetic p-nitroanilide substrate with label as P-1 amino acid
T1 construct: made in house
Text: (§1) Wild-type subtilisin was purified from B. subtilis culture supernatants expressing the B. amyloliquefaciens subtilisin gene (Wells, J.A., et al. (1983) Nucleic Acids Res. 11, 7911-7925) as previously described (Estell, D.A., et al. (1985) J. Biol. Chem. 260, 6518-6521). Details of the synthesis of tetrapeptide substrates having the form succinyl-L-AlaL-AlaL-ProL-[X]-p-nitroanilide (where X is the P1 amino acid) are described by DelMar, E.G., et al. (1979) Anal. Biochem. 99, 316-320. Kinetic parameters, Km(M) and kcat-(s-^1) were measured using a modified progress curve analysis (Estell, D.A., et al. (1985) J. Biol. Chem. 260, 6518-6521). Briefly, plots of rate versus product concentration were fit to the differential form of the rate equation using a non-linear regression algorithm. Errors in kcat and Km for all values reported are less than five percent. The various substrates in Table VIII are ranged in order of decreasing hydrophobicity. Nozaki, Y. (1971), J. Biol. Chem. 246, 2211-2217; Tanford C. (1978) Science 200, 1012).
(§2) The wild type DNA sequence was mutated by the V152/P153 primer (Figure 20, line 4) using the above restriction-purification approach for the new Kpnl site. Other mutant primers (shaded sequences Figure 20; S152, line 5 and G152, line 6) mutated the new Kpnl site away and such mutants were isolated using the restriction-selection procedure as described above for loss of the Kpnl site.
(§3) The results of these substitutions for the above synthetic substrates containing the P-1 amino acids Phe, Leu and Ala are shown in Table XII.

[2] = biological target: T2, B. amyloliquefaciens subtilisin, wild type (WT, Gly166) (Bacillus amyloliquefaciens, UniProt P00782); assay: Kinetics of hydrolysis of succinyl-Ala-Ala-Pro-X-p-nitroanilide substrates (progress curve analysis); assay type: biochemical; details: for kcat/Kmx10^-4: Table XII, Ala (wild type) at position 152, synthetic p-nitroanilide substrate with label as P-1 amino acid
T2 construct: at various amino acid residues within the mature form of the subtilisin molecule; made in house; host or cells: Bacillus subtilis (secreted, culture supernatant)
T2 sequence (P00782 108-382): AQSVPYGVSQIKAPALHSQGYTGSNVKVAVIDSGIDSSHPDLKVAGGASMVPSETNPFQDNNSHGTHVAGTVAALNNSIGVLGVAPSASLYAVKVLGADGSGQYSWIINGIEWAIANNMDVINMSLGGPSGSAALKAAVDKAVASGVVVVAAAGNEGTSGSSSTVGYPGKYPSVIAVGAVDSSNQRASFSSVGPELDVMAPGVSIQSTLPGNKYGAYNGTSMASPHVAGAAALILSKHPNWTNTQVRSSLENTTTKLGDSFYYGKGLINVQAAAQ
Text: A change in substrate specificity is defined as a difference between the kcat/Km ratio of the precursor carbonyl hydrolase and that of the hydrolase mutant. The kcat/Km ratio is a measure of catalytic efficienty. Carbonyl hydrolase mutants with increased or diminished kcat/Km ratios are described in the examples. Generally, the objective will be to secure a mutant having a greater (numerically large) kcat/Km ratio for a given substrate, thereby enabling the use of the enzyme to more efficiently act on a target substrate. A substantial change in kcat/Km ratio is preferably at least 2-fold increase or decrease. However, smaller increases or decreases in the ratio (e.g., at least 1.5-fold) are also considered substantial. An increase in kcat/Km ratio for one substrate may be accompanied by a reduction in kcat/Km ratio for another substrate. […] Km and kcat are measured in accord with known procedures, as described in EPO Publication No. 0130756 or as described herein.
as §1

[3] = biological target: T3, B. amyloliquefaciens subtilisin variant S152 (Ala152 to Ser) (Bacillus amyloliquefaciens, UniProt P00782, A259S); assay: Kinetics of p-nitroanilide substrate hydrolysis, S152; assay type: biochemical; details: Table XII, Ser (S) at position 152; synthetic p-nitroanilide substrate with label as P-1 amino acid
T3 construct: at various amino acid residues within the mature form of the subtilisin molecule; made in house
Text: as §1, §2, §3

[4] = substrate: C[C@H](NC(=O)CCC(=O)O)C(=O)N[C@@H](C)C(=O)N1CCC[C@H]1C(=O)N[C@@H](Cc1ccccc1)C(=O)Nc1ccc([N+](=O)[O-])cc1; assay: Kinetics of p-nitroanilide substrate hydrolysis, L217; assay type: biochemical, B. amyloliquefaciens; details: other: substrate sAAPFpNa; Km in M
Text: as §1
Tyr217 has been substituted by all other 19 amino acids. Cassette mutagenesis as described in EPO publication No. 0130756 was used according to the protocol of Figure 22. The EcoRV restriction site was used for restriction-purification of pA217.
Since this position is involved in substrate binding, mutations here effect kinetic parameters of the enzyme. […]

[5] = substrate: C[C@H](NC(=O)CCC(=O)O)C(=O)N[C@@H](C)C(=O)N1CCC[C@H]1C(=O)N[C@@H](Cc1ccccc1)C(=O)Nc1ccc([N+](=O)[O-])cc1; assay: Kinetics of p-nitroanilide substrate hydrolysis, K166/A222; assay type: biochemical, B. amyloliquefaciens; details: other: Table XIX
Text: as §1, with “1012). […]” for “1012).”

[6] = substrate: C[C@H](NC(=O)[C@@H]1CCCN1C(=O)[C@H](C)NC(=O)[C@H](Cc1ccccc1)NC(=O)CCC(=O)O)C(=O)Nc1ccc([N+](=O)[O-])cc1; assay: Kinetics of p-nitroanilide substrate hydrolysis, H104; assay type: biochemical, B. amyloliquefaciens; details: other: Table XI
Text: as §1
(§4) Tyr104 has been substituted with Ala, His, Leu, Met and Ser. The method used was a modification of the site directed mutagenesis method. According to the protocol of Figure 19, a primer (shaded in line 4) introduced a unique Hindlll site and a frame shift mutation at codon 104. Restriction-purification for the unique Hindlll site facilitated the isolation of the mutant sequence. Restriction-selection against this Hindlll site using pimers in line 5 was used to obtain position 104 mutants.
(§5) The substrates in Table XI were used to analyze the substrate specificity of these mutants.

[7] = substrate: C[C@H](NC(=O)CCC(=O)O)C(=O)N[C@@H](C)C(=O)N1CCC[C@H]1C(=O)N[C@@H](Cc1ccccc1)C(=O)Nc1ccc([N+](=O)[O-])cc1; assay: as above; assay type: biochemical, B. amyloliquefaciens; details: other: Table XI
Text: as §1, §4, §5

[8] = substrate: C[C@H](NC(=O)CCC(=O)O)C(=O)N[C@@H](C)C(=O)N1CCC[C@H]1C(=O)N[C@@H](C)C(=O)Nc1ccc([N+](=O)[O-])cc1; assay: as above; assay type: biochemical, B. amyloliquefaciens; details: other: Table XI
Text: as §1, §4, §5

[9] = substrate: C[C@H](NC(=O)[C@H](Cc1ccccc1)NC(=O)CCC(=O)O)C(=O)N1CCC[C@H]1C(=O)N[C@@H](Cc1ccccc1)C(=O)Nc1ccc([N+](=O)[O-])cc1; assay: as above; assay type: biochemical, B. amyloliquefaciens; details: other: Table XI
Text: as §1, §4, §5

[10] = substrate: C[C@H](NC(=O)CCC(=O)O)C(=O)N[C@@H](C)C(=O)N1CCC[C@H]1C(=O)N[C@@H](Cc1ccccc1)C(=O)Nc1ccc([N+](=O)[O-])cc1; assay: Kinetics of p-nitroanilide substrate hydrolysis, A222; assay type: biochemical, B. amyloliquefaciens; details: other: Table XIX
Text: as §1
Although mutations at position 222 improve oxidation stability they also tend to increase the Km. In this case the A222 mutation was combined with the K166 mutation to give an enzyme with kcat and Km intermediate between the two parent enzymes.

[11] = substrate: C[C@H](NC(=O)CCC(=O)O)C(=O)N[C@@H](C)C(=O)N1CCC[C@H]1C(=O)N[C@@H](Cc1ccccc1)C(=O)Nc1ccc([N+](=O)[O-])cc1; assay: Kinetics of p-nitroanilide substrate hydrolysis, deletion mutant; assay type: biochemical, B. amyloliquefaciens; details: other: Table V; substrate not given; Km in M
Text: The effect of deletion of residues 161 through 164 has been shown by comparing the activity of the wild type (WT) enzyme with a mutant enzyme containing this deletion as well as multiple substitutions (i.e., S153/S156/A158/G159/S160/0161-164/1165/S166/A169/R170). This produced the following results:
as §1

[12] = Table VIII, substrate succinyl-L-AlaL-AlaL-ProL-[X]-p-nitroanilide, X = label (P1 amino acid)

T1 sequence (P00782 108-382 A259G): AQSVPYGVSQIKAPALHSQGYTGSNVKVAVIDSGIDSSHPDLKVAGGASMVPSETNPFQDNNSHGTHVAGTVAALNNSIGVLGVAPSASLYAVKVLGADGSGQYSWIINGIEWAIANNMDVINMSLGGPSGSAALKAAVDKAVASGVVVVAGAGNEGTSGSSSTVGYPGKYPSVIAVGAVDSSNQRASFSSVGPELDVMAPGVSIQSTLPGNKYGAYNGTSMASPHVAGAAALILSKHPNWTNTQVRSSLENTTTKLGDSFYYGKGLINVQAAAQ
T3 sequence (P00782 108-382 A259S): as the sequence (P00782 108-382 A259G) above, with G152S counted along it

With `C[C@H](NC(=O)CCC(=O)O)C(=O)N[C@@H](C)C(=O)N1CCC[C@H]1C(=O)N[C@@H](C)C(=O)Nc1ccc([N+](=O)[O-])cc1` [Ala] (Suc-AAPA-pNA) the “kcat/Kmx10^-4” value [1] was less than 0.04, the “kcat/Kmx10^-4” value [2] was 1.0 and the “kcat/Kmx10^-4” value [3] was 0.2.

With `CC(C)C[C@H](NC(=O)[C@@H]1CCCN1C(=O)[C@H](C)NC(=O)[C@H](C)NC(=O)CCC(=O)O)C(=O)Nc1ccc([N+](=O)[O-])cc1` [Leu] (Suc-AAPL-pNA) the “kcat/Kmx10^-4” value [1] was 0.4, the “kcat/Kmx10^-4” value [2] was 10.0 and the “kcat/Kmx10^-4” value [3] was 0.5.

In the case of `C[C@H](NC(=O)CCC(=O)O)C(=O)N[C@@H](C)C(=O)N1CCC[C@H]1C(=O)N[C@@H](CCC(=O)O)C(=O)Nc1ccc([N+](=O)[O-])cc1` [Glu] (Suc-AAPE-pNA), the kcat [2, 12] is reported as 0.54 S^-1.

In the case of `C[C@H](NC(=O)CCC(=O)O)C(=O)N[C@@H](C)C(=O)N1CCC[C@H]1C(=O)N[C@@H](Cc1ccccc1)C(=O)Nc1ccc([N+](=O)[O-])cc1` [Phe] (Suc-AAPF-pNA), the “kcat/Kmx10^-4” value [1] is reported as 0.2, the kcat [2, 12] is reported as 50 S^-1 and the “kcat/Kmx10^-4” value [2] is reported as 40.0. For the same molecule, the kcat ([2]; Table XIII, Glu156/Gly166 (WT), synthetic substrate with label as P-1 residue) was 50.00 s-^1 and the “kcat/Kmx10^-4” value [3] was 1.0.

B1: B. amyloliquefaciens subtilisin variant L217 (Tyr217 to Leu) (Bacillus amyloliquefaciens; Y324L) (protein)
chain: T2 sequence (P00782 108-382) with Y217L
notes: at various amino acid residues within the mature form of the subtilisin molecule; made in house
B1 gave a Km [4] of 470 µM.

B2: B. amyloliquefaciens subtilisin variant K166/A222 (Bacillus amyloliquefaciens; G273K/M329A) (protein)
chain: T2 sequence (P00782 108-382) with G166K, M222A
notes: as for B1
In the case of B2, the Km [5] is reported as 200 µM and the kcat [5] is reported as 29 s-^1.

B3: B. amyloliquefaciens subtilisin variant H104 (Tyr104 to His) (Bacillus amyloliquefaciens; Y211H) (protein)
chain: T2 sequence (P00782 108-382) with Y104H
notes: as for B1
Work on B3 yielded a Km [6] of 150 µM, a kcat [6] of 2.4 s-^1 and a kcat/Km [6] of 16000 M⁻¹ s⁻¹. The Km [7] was 710 µM, the kcat [7] was 22.0 s-^1 and the kcat/Km [7] was 31000 M⁻¹ s⁻¹. It also gave a Km [8] of 1900 µM, a kcat [8] of 2.0 s-^1 and a kcat/Km [8] of 1000 M⁻¹ s⁻¹. The Km [9] was 410 µM, the kcat [9] was 38.0 s-^1 and the kcat/Km [9] was 91000 M⁻¹ s⁻¹.

B4: B. amyloliquefaciens subtilisin variant A222 (Met222 to Ala) (Bacillus amyloliquefaciens; M329A) (protein)
chain: T2 sequence (P00782 108-382) with M222A
notes: as for B1
B4 was tested, and the Km [10] was 990 µM and the kcat [10] was 42 s-^1.

B5: B. amyloliquefaciens subtilisin deletion mutant S153/S156/A158/G159/S160/Δ161-164/I165/S166/A169/R170 (Bacillus amyloliquefaciens; … (protein)
chain: AQSVPYGVSQIKAPALHSQGYTGSNVKVAVIDSGIDSSHPDLKVAGGASMVPSETNPFQDNNSHGTHVAGTVAALNNSIGVLGVAPSASLYAVKVLGADGSGQYSWIINGIEWAIANNMDVINMSLGGPSGSAALKAAVDKAVASGVVVVAASGNSGAGSISYPARYPSVIAVGAVDSSNQRASFSSVGPELDVMAPGVSIQSTLPGNKYGAYNGTSMASPHVAGAAALILSKHPNWTNTQVRSSLENTTTKLGDSFYYGKGLINVQAAAQ
notes: as for B1
For B5, the Km [11] was 5 µM.

Reference: patent EP0251446B1, “Non-human Carbonyl hydrolase mutants, DNA sequences and vectors encoding same and hosts transformed with said vectors” (GENENCOR INTERNATIONAL, INC., priority 1986, dated 1988)
